Data from the supplement of paper PMC10567573.

B1: CSTF3 (parent)
chain: YVPEKVKKAEKKLEENPYDLDAWS

Variants of: B1
Test: protein stability index of a GFP-peptide fusion (GPS, HEK-293T) (PSI 1-6); higher = more stable
Conditions: c terminus: a fixed tail appended
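Also: lentivirally expressed fusions sorted by FACS into six bins by GFP to DsRed ratio, PSI derived from sequencing read proportions per bin multiplied by bin number.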

Row | Variant | protein stability index
1 | YVPEKVKKWEKKLEENPYDLDAWS [A9W] | 3.31
2 | YVPEKVKKEEKKLEENPYDLDAWS [A9E] | 1.96
3 | YVPEKVKKYEKKLEENPYDLDAWS [A9Y] | 3.21
4 | YVPEKVKKIEKKLEENPYDLDAWS [A9I] | 2.59
5 | YVPEKVKKHEKKLEENPYDLDAWS [A9H] | 2.85
6 | YVPEKVKKCEKKLEENPYDLDAWS [A9C] | 2.11
7 | YVPEKVKKFEKKLEENPYDLDAWS [A9F] | 3.1
8 | YVPEKVKKTEKKLEENPYDLDAWS [A9T] | 2.66
9 | YVPEKVKKVEKKLEENPYDLDAWS [A9V] | 2.64
10 | YVPEKVKKGEKKLEENPYDLDAWS [A9G] | 3.46
11 | YVPEKVKKQEKKLEENPYDLDAWS [A9Q] | 2.11
12 | YVPEKVKKSEKKLEENPYDLDAWS [A9S] | 2.27
13 | YVPEKVKKKEKKLEENPYDLDAWS [A9K] | 2.59
14 | YVPEKVKKDEKKLEENPYDLDAWS [A9D] | 1.65
15 | YVPEKVKKLEKKLEENPYDLDAWS [A9L] | 2.32
16 | YVPEKVKKREKKLEENPYDLDAWS [A9R] | 3.47
17 | YVPEKVKKPEKKLEENPYDLDAWS [A9P] | 4.02
18 | YVPEKVKKMEKKLEENPYDLDAWS [A9M] | 2.16
19 | YVPEKVPKAEKKLEENPYDLDAWS [K7P] | 3.13
20 | YVPEKVNKAEKKLEENPYDLDAWS [K7N] | 3.83
21 | YVPEKVEKAEKKLEENPYDLDAWS [K7E] | 2.56
22 | YVPEKVYKAEKKLEENPYDLDAWS [K7Y] | 2.48
23 | YVPEKVVKAEKKLEENPYDLDAWS [K7V] | 1.91
24 | YVPEKVWKAEKKLEENPYDLDAWS [K7W] | 2.89

Row | Variant | protein stability index
25 | YVPEKVGKAEKKLEENPYDLDAWS [K7G] | 1.91
26 | YVPEKVDKAEKKLEENPYDLDAWS [K7D] | 2.54
27 | YVPEKVIKAEKKLEENPYDLDAWS [K7I] | 2.17
28 | YVPEKVLKAEKKLEENPYDLDAWS [K7L] | 3.11
29 | YVPEKVCKAEKKLEENPYDLDAWS [K7C] | 2.12
30 | YVPEKVTKAEKKLEENPYDLDAWS [K7T] | 2.94
31 | YVPEKVRKAEKKLEENPYDLDAWS [K7R] | 2.73
32 | YVPEKVMKAEKKLEENPYDLDAWS [K7M] | 1.52
33 | YVPEKVFKAEKKLEENPYDLDAWS [K7F] | 2.26
34 | YVPEKVAKAEKKLEENPYDLDAWS [K7A] | 2.17
35 | YVPEKVQKAEKKLEENPYDLDAWS [K7Q] | 2
36 | YVPEKVHKAEKKLEENPYDLDAWS [K7H] | 3.08
37 | YVPEKVSKAEKKLEENPYDLDAWS [K7S] | 2.47
38 | YVPEKVKKAEIKLEENPYDLDAWS [K11I] | 3.43
39 | YVPEKVKKAELKLEENPYDLDAWS [K11L] | 2.31
40 | YVPEKVKKAECKLEENPYDLDAWS [K11C] | 2.65
41 | YVPEKVKKAEGKLEENPYDLDAWS [K11G] | 2.01
42 | YVPEKVKKAEAKLEENPYDLDAWS [K11A] | 2.32
43 | YVPEKVKKAENKLEENPYDLDAWS [K11N] | 2.67
44 | YVPEKVKKAEDKLEENPYDLDAWS [K11D] | 2.07
45 | YVPEKVKKAEEKLEENPYDLDAWS [K11E] | 2.54
46 | YVPEKVKKAEMKLEENPYDLDAWS [K11M] | 2.42
47 | YVPEKVKKAEFKLEENPYDLDAWS [K11F] | 2.06
48 | YVDEKVKKAEKKLEENPYDLDAWS [P3D] | 2.69

Row | Variant | protein stability index
49 | YVHEKVKKAEKKLEENPYDLDAWS [P3H] | 2.47
50 | YVCEKVKKAEKKLEENPYDLDAWS [P3C] | 2.46
51 | YVGEKVKKAEKKLEENPYDLDAWS [P3G] | 2.28
52 | YVNEKVKKAEKKLEENPYDLDAWS [P3N] | 2.12
53 | YVWEKVKKAEKKLEENPYDLDAWS [P3W] | 1.76
54 | YVREKVKKAEKKLEENPYDLDAWS [P3R] | 2.44
55 | YVMEKVKKAEKKLEENPYDLDAWS [P3M] | 1.79
56 | YVKEKVKKAEKKLEENPYDLDAWS [P3K] | 2.15
57 | YVQEKVKKAEKKLEENPYDLDAWS [P3Q] | 1.89
58 | YVAEKVKKAEKKLEENPYDLDAWS [P3A] | 2.27
59 | YVYEKVKKAEKKLEENPYDLDAWS [P3Y] | 3.21
60 | YVIEKVKKAEKKLEENPYDLDAWS [P3I] | 1.99
61 | YVSEKVKKAEKKLEENPYDLDAWS [P3S] | 2.23
62 | YVFEKVKKAEKKLEENPYDLDAWS [P3F] | 1.89
63 | YVLEKVKKAEKKLEENPYDLDAWS [P3L] | 1.74
64 | YVTEKVKKAEKKLEENPYDLDAWS [P3T] | 2.35
65 | YVVEKVKKAEKKLEENPYDLDAWS [P3V] | 1.97
66 | YVEEKVKKAEKKLEENPYDLDAWS [P3E] | 2.7
67 | YVPEKVKKAKKKLEENPYDLDAWS [E10K] | 3.68
68 | YVPEKVKKAFKKLEENPYDLDAWS [E10F] | 2.32
69 | YVPEKVKKAWKKLEENPYDLDAWS [E10W] | 1.98
70 | YVPEKVKKATKKLEENPYDLDAWS [E10T] | 1.74
71 | YVPEKVKKAGKKLEENPYDLDAWS [E10G] | 2.97
72 | YVPEKVKKANKKLEENPYDLDAWS [E10N] | 3.24

Row | Variant | protein stability index
73 | YVPEKVKKAMKKLEENPYDLDAWS [E10M] | 1.55
74 | YVPEKVKKAHKKLEENPYDLDAWS [E10H] | 3.67
75 | YVPEKVKKAPKKLEENPYDLDAWS [E10P] | 2
76 | YVPEKVKKADKKLEENPYDLDAWS [E10D] | 1.92
77 | YVPEKVKKACKKLEENPYDLDAWS [E10C] | 3.32
78 | YVPEKVKKASKKLEENPYDLDAWS [E10S] | 2.56
79 | YVPEKVKKAVKKLEENPYDLDAWS [E10V] | 2.18
80 | YVPEKVKKAIKKLEENPYDLDAWS [E10I] | 1.86
81 | YVPEKVKKAQKKLEENPYDLDAWS [E10Q] | 3.08
82 | YVPEKVKKAYKKLEENPYDLDAWS [E10Y] | 2.86
83 | YVPEKVKKAAKKLEENPYDLDAWS [E10A] | 1.93
84 | YVPEKVKKARKKLEENPYDLDAWS [E10R] | 2.63
85 | YVPEKWKKAEKKLEENPYDLDAWS [V6W] | 2.57
86 | YVPEKYKKAEKKLEENPYDLDAWS [V6Y] | 2.75
87 | YVPEKTKKAEKKLEENPYDLDAWS [V6T] | 1.58
88 | YVPEKHKKAEKKLEENPYDLDAWS [V6H] | 2.04
89 | YVPEKSKKAEKKLEENPYDLDAWS [V6S] | 2.15
90 | YVPEKRKKAEKKLEENPYDLDAWS [V6R] | 1.35
91 | YVPEKIKKAEKKLEENPYDLDAWS [V6I] | 3.77
92 | YVPEKGKKAEKKLEENPYDLDAWS [V6G] | 2.04
93 | YVPEKDKKAEKKLEENPYDLDAWS [V6D] | 2.22
94 | YVPEKEKKAEKKLEENPYDLDAWS [V6E] | 2
